Measured values published in patent publication US7618943B2, “Fusion polypeptides, and use thereof in antivascular tumor therapy” (Oncoscience AG, priority 2003, dated 2009).
“Also recorded” adds a separate entry of the source.

What was measured:
[1] = system: human malignant melanoma (M21); test: M21 melanoma xenograft in athymic nude mice, intravenous therapy; format: in vivo
Procedure: The vertical arrows indicate the times of injection with the respective substances.
The vertical arrows indicate the times of the injections with the respective substances.
(§1) The tTF-RGD and tTF-NGR fusion proteins were evaluated with respect to their effects and side-effects on xenografts of human tumors in athymic nude mice. The models established in our laboratory were used for this (33, 34). The cell lines CCL185 (human adenocarcinoma of the lung) and M-21 (human melanoma) were injected subcutaneously into the flank of male BALB/c nude mice (9-12 weeks old). On attaining a tumor volume of about 50-100 mm^3 (CCL185) or 400-600 mm^3 (M−21), the mice were assigned to four groups at random. Group 1 received only physiological saline solution (NaCl), group 2 tTF, group 3 tTF-RGD, and group 4 tTF-NGR (in each case 1.5-2.0 mg/kg body weight (BW) of the protein). The injections were made in the caudal vein of the animals at intervals of 1-3 days (depending on the growth rate of the particular cell line). Considerable therapeutic activity of the fusion proteins was observed.

human endothelial cells = test: FACS binding of biotinylated proteins to endothelial cells in suspension; format: cell-based; settings: 0.1 μM, 60 min at 4° C., streptavidin-phycoerythrin detection
Procedure: FIG. 6: Binding of tTF and tTF-RGD to human endothelial cells. A: FACS analysis of endothelial cells incubated with 0.1 μM tTF (2) or with 0.1 μM tTF-RGD (3) for 60 min at 4° C. […] Curves 1 in A and B show the negative control.
Next the specific binding of tTF-RGD to αvβ3 on endothelial cells was evaluated. For this, the differential binding of biotinylated tTF and tTF-RGD to endothelial cells in suspension was analysed by FACS (Fluorescence Activated Cell Sorting). The fact that all endothelial cells held in tissue culture are activated, i.e. express αvβ3 molecules, is utilized experimentally. This can be detected by various immunohistochemical methods. A cultivated endothelial cell thus corresponds, in relation to its expression pattern with respect to αvβ3 to a tumor endothelial cell. Accordingly, a cultivated endothelial cell can be used as a model system for the specific binding of substances to tumor endothelial cells and also permits predictions to be made concerning the expected toxicity.
Streptavidin-phycoerythrin was used as the detection method. The measured fluorescence intensity for tTF-RGD was higher by a factor of 8 than for tTF (FIG. 6A). Furthermore, the binding of 0.1 μM tTF-RGD to endothelial cells was lowered competitively by 75% by the administration of 1 μM of the synthetic peptide GRGDSP (SEQ ID NO:33) (FIG. 6B). […]

[2] = system: human fibrosarcoma (HT1080); test: HT1080 fibrosarcoma xenograft in BALB/c nude mice, intravenous therapy; format: in vivo
From the text: b: Inhibition of a human fibrosarcoma (HT1080) growing as a xenograft in athymic nude mice by intravenous therapy with tTF fusion proteins (tTF-RGD, n=12) compared with the growth of the tumors with infusion of physiological saline solution (NaCl, n=15) or tTF (n=14). The vertical arrows indicate the times of the injections with the respective substances.
The antitumor activity of the tTF-RGD fusion protein was also investigated in BALB/c nude mice with fibrosarcomas (HT1080). These tumors grow rapidly and are well-vascularized. […] This effect lasted until the end of the experiment on day 7 (P=0.021 for tTF-RGD relative to the buffer control (physiological saline solution), P=0.005 for tTF-RGD relative to tTF).

integrin αvβ3 = integrin αvβ3 (Homo sapiens, UniProt P05106+P06756); test: ELISA binding to immobilized purified αvβ3; settings: 0.1 μM protein, immobilized αvβ3
Procedure: FIG. 4: Binding of tTF, tTF-RGD and tTF-NGR to integrin αvβ3. The binding of 0.1 μM tTF, tTF-RGD and tTF-NGR to immobilized αvβ3 was quantified with a polyclonal antibody against human TF (American Diagnostica) in an ELISA. The results are presented as median and interquartile range. The differences in binding between tTF-RGD and tTF or between tTF-NGR and tTF were statistically significant (p<0.001, Mann-Whitney test).

[3] = system: human lung carcinoma (CCL185); test: CCL185 lung carcinoma xenograft in athymic nude mice, intravenous therapy; format: in vivo
From the text: FIG. 7: Inhibition of a human lung carcinoma (CCL185) growing as a xenograft in athymic nude mice by intravenous therapy with tTF fusion proteins (tTF-RGD, n=6; tTF-NGR, n=6) compared with tumor growth with infusion of physiological saline solution (NaCl, n=8) or tTF (n=1). The vertical arrows indicate the times of injection with the respective substances.
c: Inhibition of a human lung carcinoma (CCL185) growing as a xenograft in athymic nude mice by intravenous therapy with tTF fusion proteins (tTF-RGD, n=11) compared with the growth of the tumors in infusion of physiological saline solution (NaCl, n=10) or tTF (n=5). The vertical arrows indicate the times of the injections with the respective substances.
as §1

[4] = system: normal tissue such as heart, kidney, liver and lung; settings: mouse, in vivo
tumor blood vessels = test: Macroscopy and histology of tumors after injection (thrombosis induction in tumor vessels, necrosis); format: in vivo, mice
Procedure: FIG. 9: Macroscopic in vivo photograph of a tumor-bearing mouse 20 min after injection of the tTF-NGR fusion protein (A, left half of the picture) or NaCl (A, right half of the picture). […] After 60 min, the two mice were exsanguinated, the tumor was excised in toto and examined histologically. […] In contrast, the NaCl-treated tumor appears to be vital (C).
FIG. 10: Histology of the melanoma tumor 1 hour after intravenous injection of tTF-RGD (A and B), tTF-NGR (C and D) and common salt (E and F) in the caudal vein of the tumor-bearing nude mouse. […] The photographs are of representative areas of the tumors (A, C and E: 200× magnification, B, D and F 400× magnification; HE staining (staining described e.g. in H. C. Burck, Histologische Technik-Leitfaden für die Herstellung mikroskopischer Präparate in Unterricht und Praxis, 5th edition, Thieme Verlag, Stuttgart 1982, pages 109 ff.).
FIG. 35: Macrograph of a mouse bearing an M21 tumor at the end of treatment (day 7) with tTF-RGD fusion protein (A, C) or NaCl (B, D).
To verify the mechanism of action of thrombosis induction in tumor vessels, the following experiment was carried out: the human melanoma cell line was injected into the flank of two male BALB/c nude mice. On attaining a tumor size of approx. 500 mm^3, 2.0 mg/kg BW tTF-NGR or NaCl was injected into the caudal vein. […] After 60 min the mice were exsanguinated, the tumor was excised in toto and investigated histologically. […] In contrast, the tumor treated with NaCl appears to be vital (FIG. 9C).

[5] = melanoma tumor 1 hour after intravenous injection, HE staining

Sequence of integrin αvβ3 (P06756 31-889 limits assumed): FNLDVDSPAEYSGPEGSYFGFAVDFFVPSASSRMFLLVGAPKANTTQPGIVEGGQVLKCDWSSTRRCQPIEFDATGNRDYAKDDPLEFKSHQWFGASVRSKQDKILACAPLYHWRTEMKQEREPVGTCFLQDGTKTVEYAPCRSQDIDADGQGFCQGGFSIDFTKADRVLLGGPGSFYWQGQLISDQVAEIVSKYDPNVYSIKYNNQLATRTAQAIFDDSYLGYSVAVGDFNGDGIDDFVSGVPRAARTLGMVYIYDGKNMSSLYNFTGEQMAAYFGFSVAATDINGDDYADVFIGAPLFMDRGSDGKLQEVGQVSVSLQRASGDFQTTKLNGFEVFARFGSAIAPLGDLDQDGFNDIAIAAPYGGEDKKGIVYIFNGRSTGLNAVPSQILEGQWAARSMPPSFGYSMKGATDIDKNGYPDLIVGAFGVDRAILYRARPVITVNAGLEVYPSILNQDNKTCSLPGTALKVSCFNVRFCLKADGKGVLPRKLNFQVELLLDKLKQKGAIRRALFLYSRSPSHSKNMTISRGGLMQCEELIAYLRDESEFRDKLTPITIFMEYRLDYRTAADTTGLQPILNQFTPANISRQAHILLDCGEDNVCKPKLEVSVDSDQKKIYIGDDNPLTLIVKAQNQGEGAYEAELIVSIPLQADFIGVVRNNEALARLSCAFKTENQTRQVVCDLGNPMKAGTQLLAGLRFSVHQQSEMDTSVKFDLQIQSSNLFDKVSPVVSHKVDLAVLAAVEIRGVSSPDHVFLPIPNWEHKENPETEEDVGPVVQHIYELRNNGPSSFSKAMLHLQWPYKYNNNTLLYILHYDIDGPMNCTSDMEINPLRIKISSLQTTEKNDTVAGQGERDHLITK
Sequence of integrin αvβ3 (P06756 891-1048 limits assumed): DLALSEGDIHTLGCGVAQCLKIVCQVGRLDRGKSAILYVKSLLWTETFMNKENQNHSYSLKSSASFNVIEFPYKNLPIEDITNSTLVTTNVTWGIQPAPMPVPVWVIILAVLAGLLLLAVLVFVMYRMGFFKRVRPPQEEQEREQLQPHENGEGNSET
Sequence of integrin αvβ3 (P05106 27-788): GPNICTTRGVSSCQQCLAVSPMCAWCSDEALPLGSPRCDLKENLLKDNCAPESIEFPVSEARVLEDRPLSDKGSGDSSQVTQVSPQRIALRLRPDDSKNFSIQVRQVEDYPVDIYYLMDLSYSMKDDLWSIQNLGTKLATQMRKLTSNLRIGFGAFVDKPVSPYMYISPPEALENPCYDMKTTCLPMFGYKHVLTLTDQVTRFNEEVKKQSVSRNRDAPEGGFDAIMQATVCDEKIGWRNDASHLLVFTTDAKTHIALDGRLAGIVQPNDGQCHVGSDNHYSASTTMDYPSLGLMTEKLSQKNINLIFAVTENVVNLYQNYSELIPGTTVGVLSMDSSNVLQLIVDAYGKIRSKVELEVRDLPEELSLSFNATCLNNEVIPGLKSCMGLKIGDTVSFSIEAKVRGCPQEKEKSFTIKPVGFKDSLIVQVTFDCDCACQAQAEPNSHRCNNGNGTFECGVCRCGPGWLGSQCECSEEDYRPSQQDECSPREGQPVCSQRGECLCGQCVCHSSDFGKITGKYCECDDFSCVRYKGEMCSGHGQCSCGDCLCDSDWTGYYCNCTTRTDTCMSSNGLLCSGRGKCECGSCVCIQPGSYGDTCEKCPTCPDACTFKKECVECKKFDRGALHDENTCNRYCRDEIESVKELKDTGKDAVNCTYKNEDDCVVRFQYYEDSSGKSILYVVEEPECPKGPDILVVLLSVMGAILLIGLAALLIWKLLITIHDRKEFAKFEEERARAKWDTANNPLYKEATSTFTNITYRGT

B1: tTF-RGD: fusion polypeptide tTF-GRGDSP (SEQ ID NO:3), peptide coupled to C-terminus of tTF (protein)
chain: SGTTNTVAAYNLTWKSTNFKTILEWEPKPVNQVYTVQISTKSGDWKSKCFYTTDTECDLTDEIVKDVKQTYLARVFSYPAGNVESTGSAGEPLYENSPEFTPYLETNLGQPTIQSFEQVGTKVNVTVEDERTLVRRNNTFLSLRDVFGKDLIYTLYYWKSSSSGKKTAKTNTNEFLIDVDKGENYCFSVQAVIPSRTVNRKSTDSPVECMGQEKGEFRGRGDSD
modifications: Amino acid sequence of tTF-GRGDSP
B1 was tested, and the “Mean tumor volume Day 0” value ([1]; M21 tumors, Day 0 (baseline)) was 585 ± 85 mm^3, the “Mean tumor volume Day 7” value ([1]; M21 tumors, Day 7) was 514 ± 81 mm^3 and the “effect on tumor growth” value ([1]; M21 xenograft, intravenous therapy, compared with NaCl or tTF) was “Inhibition and partial remission”. The “measured fluorescence intensity, factor higher than for tTF” value (human endothelial cells) was 8, the “Mean tumor volume Day 0” value ([2]; HT1080 tumors, Day 0 (baseline)) was 1725 ± 197 mm^3 and the “Mean tumor volume Day 7” value ([2]; HT1080 tumors, Day 7) was 1241 ± 122 mm^3. For the same molecule, the “effect on tumor growth” value ([2]; HT1080 xenograft, intravenous therapy, compared with control groups) was “significant inhibition of growth; also recorded: partial regression of tumor volume”, the “binding to the αvβ3 integrin in ELISA” value (integrin αvβ3) was “demonstrated” and the “Mean tumor volume Day 0” value ([3]; CCL185 tumors, Day 0 (baseline)) was 45 ± 5 mm^3. For the same molecule, the “Mean tumor volume Day 7” value ([3]; CCL185 tumors, Day 7) was 130 ± 19 mm^3, the “effect on tumor growth” value ([3]; CCL185 xenograft, intravenous therapy, compared with NaCl or tTF) was “Inhibition” and the “H-E staining of heart, lung, liver and kidney (thrombosis, necrosis)” value [4] was “did not show any visible thrombosis or necrosis”. The “H-E staining of tumors: thrombosis and necrosis” value (tumor blood vessels; FIG. 36, treated mice) was “Severe thrombosis and necrosis of tumor cells”, the “macroscopic appearance of tumor at the end of treatment” value (tumor blood vessels; M21 tumor, day 7) was “clear signs of necrosis” and the “histology of tumor blood vessels (thrombus formation)” value (tumor blood vessels; [5]) was “blood vessels appear to be thrombolytically occluded”. The “histology: tumor necrosis in supply region of occluded vessel” value (tumor blood vessels; [5]) was “Extensive tumor necroses”.
